Consider two molecules from patent publication US20220073608A1 (JIANGSU HUAIYU PHARMACEUTICAL, published 2022).

Residue numbers refer to the chain shown, from its start. Names and notes keep the numbering of the source.

In this assay the target is T1, hSEMA4D ECD-His (His-tagged human SEMA4D protein extracellular domain, Met22-Arg734) (human, UniProt Q92854 22-734).
T1 construct: Expressed in CHO-S cells, purified on Ni column; also called protein immunogen; immunogen A; not shown: His tag of the pCP vector
T1 sequence: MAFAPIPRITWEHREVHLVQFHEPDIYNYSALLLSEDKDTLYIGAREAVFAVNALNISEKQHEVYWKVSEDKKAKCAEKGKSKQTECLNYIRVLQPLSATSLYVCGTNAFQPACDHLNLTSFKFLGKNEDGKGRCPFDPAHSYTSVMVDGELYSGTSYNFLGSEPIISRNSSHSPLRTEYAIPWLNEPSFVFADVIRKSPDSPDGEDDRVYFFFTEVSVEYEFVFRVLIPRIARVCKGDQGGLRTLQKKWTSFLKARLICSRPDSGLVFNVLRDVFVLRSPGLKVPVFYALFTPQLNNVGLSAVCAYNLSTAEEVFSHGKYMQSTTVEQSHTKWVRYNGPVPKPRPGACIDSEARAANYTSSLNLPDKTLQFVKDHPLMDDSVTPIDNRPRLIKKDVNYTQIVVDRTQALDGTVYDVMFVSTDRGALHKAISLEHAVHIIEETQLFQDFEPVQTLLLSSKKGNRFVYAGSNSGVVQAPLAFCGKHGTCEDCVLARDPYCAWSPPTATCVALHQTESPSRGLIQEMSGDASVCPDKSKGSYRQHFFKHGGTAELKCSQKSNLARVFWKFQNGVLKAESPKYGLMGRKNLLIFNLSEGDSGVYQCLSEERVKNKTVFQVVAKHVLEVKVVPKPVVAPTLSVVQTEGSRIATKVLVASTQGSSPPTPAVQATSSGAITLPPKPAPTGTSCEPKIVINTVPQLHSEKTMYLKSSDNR
Put plainly: SPR (Biacore), antibody captured on anti-human Fc CM5 chip, hSEMA4D ECD-His 100 nM as analyte, 1:1 fit. Here is the method:
The anti-human Fc IgG (purchased from Geneway) was coupled and immobilized on the surface of the CM5 chip (purchased from GE) by the amino coupling method, and FC1 was used as the reference channel. The coupling and immobilization process was as follows: the freshly prepared mixture of 50 mM N-hydroxysuccinimide (NHS) and 200 mM 1-(3-dimethylaminopropyl)-3-ethylcarbodiimide hydrochloride (EDC) with a molar ratio of […] was used to activate the chip. Then 10-50 μg/mL anti-human Fc IgG diluted in 10 mM sodium acetate buffer (pH 5.0) was injected. The remaining activated sites were blocked with 1M ethanolamine. Then, buffer containing HBS-EP was used to dilute the 2D5-b1-3D9 antibody prepared to 5 ug/ml and the antibodies were captured on the chip at a flow rate of 10 ul/min to obtain a response value of about 100-300RU. Then, the purified hSEMA4D ECD-His was diluted to 100 nM and let flow across the chip surface at a flow rate of 30 μL/min. At the end of each cycle, the chip surface was regenerated with 10 mM Glycine at pH 1.5. The kinetic rate constant needed to be subtracted from the blank control, and the data was fitted with the global fit analysis method 1:1 combined with the model (see the Biacore operation manual for operation). The dissociation equilibrium rate constant (KD) was calculated according to the following formula: KD=kd/ka, wherein Kd is the dissociation constant and Ka is the binding constant.

B1: 2D5-b1 (antibody, V domains shown)
VH: QVTLRESGPALVKPTQTLTLTCTFSGFSLTTTGVAVTWIRQPPGKALEWLALIDWDDDKYYSTSLKTRLTISKDTSKNQVVLTMTNMDPVDTATYYCARIASGDSGGYFADWGQGTLVTVSS
VL: SYELTQPPSVSVSPGQTASITCSGDKLDDKYVYWYQQKPGQSPVLVIYRDNKRPSGIPERFSGSNSGNTATLTISGTQAMDEADYYCQAWESSSDQYVFGTGTKVTVL
notes: Framework back-mutated variant of 2D5; the parent 2D5 was human IgG4 (S228P)/lambda; captured by anti-human Fc in the SPR assay
With B1, the dissociation constant (Kd) amounted to 2.01 nM, the koff came to 0.00103 s⁻¹ and the kon was 511000 M⁻¹ s⁻¹.

B2: 2D5-b1-3D9 (antibody, human IgG4, V domains shown)
VH: B1 VH
VL: B1 VL with R49M, P54K
notes: also called 2D5-b1-3D9 antibody
B2: the Kd came to 0.184 nM, the koff came to 0.000107 s⁻¹ and the association rate constant (kon) came to 583000 M⁻¹ s⁻¹.

The term Kd denotes a measure of binding affinity in units of concentration. For orientation: koff means a measure of how fast the partners let go of each other. The term kon denotes the rate constant with which the complex forms. High values mean faster complex formation, low ones slower complex formation.
